For orientation: Km means the concentration of substrate that gives half-maximal velocity.

The series can be described thus: Standard protocol for determination of kcat and KM (continuous spectrophotometric assay, Acetyl CoA hydrolysis at 235 nm). The series is classed as biochemical. To be noted: purified protein, about 23° C., 0.2 mM acetyl CoA; for Kcat: 20 mM HEPES pH 6.8, 10% ethylene glycol; for Km: pH 6.8, glyphosate 0.125 to 10 mM. The gist of the method: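 KM from initial rates over 0.125–10 mM glyphosate, fitted by Lineweaver-Burke transformation of Michaelis-Menten; kcat/KM computed as kcat divided by KM. Continuous spectrophotometric read of acetyl-CoA hydrolysis at 235 nm.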

Positions count from the first letter of the chain named.

B1: SEQ ID NO: 320: GAT polypeptide (protein)
chain: MIEVKPINAEDTYEIRHRILRPNQPLEACMYETDLLRGTFHLGGYYRGKLVSIASFHQAEHPELEGQKQYQLRGMATLEEYREQKAGSTLIRHAEELLRKKGADLLWCNARTSASGYYKKLGFSEQGEVYDTPPAGPHILMYKKLT
modifications: 14_7A1
notes: GAT polypeptide
Consider B1, for which the Kcat is 2.597 s⁻¹ and the Km is 1600 µM.

B2: SEQ ID NO: 323: GAT polypeptide (protein)
chain: B1 chain with M30K, R37G, E80G, T132I, A135V
modifications: 14_7H9
notes: GAT polypeptide
On to B2, for which the Kcat came to 1.07 s⁻¹ and the Km was 1300 µM.

B3: SEQ ID NO: 350: GAT polypeptide (protein)
chain: B1 chain with R37G, R47Q, V51I, Q58K, P62S, E80G, K119E, T132I, A135I, T146A
modifications: 23H11
notes: GAT polypeptide
Regarding B3, the Kcat turned out to be 0.118 s⁻¹ and the Km came to 2200 µM.

B4: SEQ ID NO: 335: GAT polypeptide (protein)
chain: B1 chain with E14K, R37G, H57N, E80G, E96A, T132I, A135T
modifications: 15_4F11
notes: GAT polypeptide
With B4, the Kcat came out at 1.34 s⁻¹ and the Km worked out at 900 µM.

B5: SEQ ID NO: 327: GAT polypeptide (protein)
chain: B1 chain with M30K, T39A, H57N, E80G, K100R, T132I, A135T
modifications: 15_11F9
notes: GAT polypeptide
As for B5, the Kcat worked out at 1.27 s⁻¹ and the Km stood at 1000 µM.

B6: SEQ ID NO: 332: GAT polypeptide (protein)
chain: B1 chain with M30K, T132I, A135V
modifications: 15_12D9
notes: GAT polypeptide
For B6, the Kcat turned out to be 0.995 s⁻¹ and the Km was 1400 µM.

B7: SEQ ID NO: 264: GAT polypeptide (protein)
chain: B1 chain with M30K, T39A, K68R, E80G, T132I, A135T
modifications: 13_12G6
notes: GAT polypeptide
Consider B7, for which the Kcat came out at 0.868 s⁻¹ and the Michaelis-Menten constant (Km) is 1200 µM.

B8: SEQ ID NO: 339: GAT polypeptide (protein)
chain: B1 chain with M30K, R37G, V51I, K100R, T132I, A135V
modifications: 15_9F6
notes: GAT polypeptide
Take B8: the Kcat came to 0.993 s⁻¹ and the Km is 1100 µM.

B9: SEQ ID NO: 334: GAT polypeptide (protein)
chain: B1 chain with M30K, R37G, T132I, A135V
modifications: 15_3G11
notes: GAT polypeptide
With B9, the Kcat was determined as 1.19 s⁻¹ and the Km came out at 1200 µM.

B10: SEQ ID NO: 344: GAT polypeptide (protein)
chain: B1 chain with M30K, R37G, V51I, Q58K, P62S, E80G, K119E, T132I, A135I, T146A
modifications: 18D6
notes: GAT polypeptide
With B10, the Kcat is 0.16 s⁻¹ and the Km is 1200 µM.

B11: SEQ ID NO: 321: GAT polypeptide (protein)
chain: B1 chain with M30K, R37G, E60K, E80G, A135V
modifications: 14_7A9
notes: GAT polypeptide
B11: the Kcat came to 4.098 s⁻¹ and the Michaelis constant (Km) turned out to be 3200 µM.

B12: SEQ ID NO: 325: GAT polypeptide (protein)
chain: B1 chain with M30K, T39A, E80G, S113T, Y130F, T132I, A135T
modifications: 15_10C2
notes: GAT polypeptide
Consider B12, for which the Kcat worked out at 1.16 s⁻¹ and the Km was 800 µM.

B13: SEQ ID NO: 263: GAT polypeptide (protein)
chain: B1 chain with M30K, V51I, E80G, T132I, A135V
modifications: 13_10F6
notes: GAT polypeptide
For the molecule B13, the Kcat is 0.81 s⁻¹ and the Km was determined as 1300 µM.

B14: SEQ ID NO: 351: GAT polypeptide (protein)
chain: B1 chain with M30K, R37G, G48D, K49R, V51I, P62S, E80G, A114V, T132I, A135I
modifications: 24C1
notes: GAT polypeptide
For the molecule B14, the Kcat is 0.0283 s⁻¹ and the Km was determined as 900 µM.

B15: SEQ ID NO: 324: GAT polypeptide (protein)
chain: B1 chain with M30K, R37G, E96A, T132I, A135T
modifications: 14_8F7
notes: GAT polypeptide
As for B15, the Kcat amounted to 1.51 s⁻¹ and the Km turned out to be 1800 µM.

B16: SEQ ID NO: 322: GAT polypeptide (protein)
chain: B1 chain with M30K, T39A, V51I, H57N, E96A, A135V
modifications: 14_7G1
notes: GAT polypeptide
For the molecule B16, the Kcat was 2.278 s⁻¹ and the Km turned out to be 660 µM.

B17: SEQ ID NO: 338: GAT polypeptide (protein)
chain: B1 chain with M30K, T39A, E128K, T132I, A135V
modifications: 15_6G11
notes: GAT polypeptide
With B17, the Kcat was found to be 0.615 s⁻¹ and the Km turned out to be 900 µM.

B18: SEQ ID NO: 333: GAT polypeptide (protein)
chain: B1 chain with M30K, T39A, V51I, A54V, E80G, K143T
modifications: 15_3F10
notes: GAT polypeptide
For B18, the Kcat was 0.812 s⁻¹ and the Km came out at 900 µM.

B19: SEQ ID NO: 337: GAT polypeptide (protein)
chain: B1 chain with M30K, R37G, V51I, T132I, A135T
modifications: 15_6D3
notes: GAT polypeptide
Take B19: the Kcat amounted to 1.43 s⁻¹ and the Km came to 1400 µM.

B20: SEQ ID NO: 346: GAT polypeptide (protein)
chain: B1 chain with R18C, R37G, R47Q, V51I, Q58K, P62S, E80G, A114V, T132I, A135I
modifications: 19D5
notes: GAT polypeptide
As for B20, the Kcat stood at 0.0367 s⁻¹ and the Km stood at 1700 µM.

B21: SEQ ID NO: 336: GAT polypeptide (protein)
chain: B1 chain with M30K, R37G, T132I, A135T
modifications: 15_4H3
notes: GAT polypeptide
With B21, the Kcat was 1.56 s⁻¹ and the Km turned out to be 1000 µM.

B22: SEQ ID NO: 331: GAT polypeptide (protein)
chain: B1 chain with M30K, R37G, E80G, E128K, T132I, A135V
modifications: 15_12D8
notes: GAT polypeptide
Consider B22, for which the Kcat was 0.995 s⁻¹ and the Michaelis constant (Km) is 1300 µM.

B23: SEQ ID NO: 349: GAT polypeptide (protein)
chain: B1 chain with M30K, R37G, T39A, R47Q, V51I, P62S, E80G, A114V, T132I, A135I
modifications: 21E11
notes: GAT polypeptide
In the case of B23, the Kcat was found to be 0.0183 s⁻¹ and the Km stood at 700 µM.

B24: SEQ ID NO: 348: GAT polypeptide (protein)
chain: B1 chain with R37G, V51I, P62S, E80G, A114V, K119E, T132I, A135I
modifications: 20F2
notes: GAT polypeptide
B24: the Kcat stood at 0.065 s⁻¹ and the Km came to 1900 µM.

B25: SEQ ID NO: 328: GAT polypeptide (protein)
chain: B1 chain with M30K, T39A, V51I, E80G, E96A, T132I, A135T
modifications: 15_11H3
notes: GAT polypeptide
Take B25: the Kcat was 1.03 s⁻¹ and the Km was found to be 1000 µM.

B26: SEQ ID NO: 329: GAT polypeptide (protein)
chain: B1 chain with M30K, R37G, V51I, E80G, E96A, T132I, A135T
modifications: 15_12A8
notes: GAT polypeptide
With B26, the Kcat was 1.28 s⁻¹ and the Km came out at 1600 µM.

B27: SEQ ID NO: 330: GAT polypeptide (protein)
chain: B1 chain with T39A, E80G, A135V
modifications: 15_12D6
notes: GAT polypeptide
As to B27, the Kcat amounted to 2.477 s⁻¹ and the Km came out at 740 µM.

B28: SEQ ID NO: 265: GAT polypeptide (protein)
chain: B1 chain with M30K, R37G, G38S, V51I, H57N, E80G, A135V
modifications: 14_2A5
notes: GAT polypeptide
In the case of B28, the Kcat was found to be 4.68 s⁻¹ and the Km worked out at 1600 µM.

B29: SEQ ID NO: 326: GAT polypeptide (protein)
chain: B1 chain with R37G, T132I, A135V
modifications: 15_10D6
notes: GAT polypeptide
Take B29: the Kcat came to 1.12 s⁻¹ and the Km turned out to be 1000 µM.

B30: SEQ ID NO: 340: GAT polypeptide (protein)
chain: MIEVKPINAEDTYEIRHRILRPNQPLEACKYETDLLGGTFHLGGYYRGKLISIASFHKAEHSELEGEEQYQLRGMATLEGYREQKAGSTLIRYAEELLRKKGADLLWCNARTSVSGYYKKLGFSEQGEVYDIPPIGPHILMYKKLT
modifications: 15F5
notes: GAT polypeptide
With B30, the Kcat worked out at 0.0083 s⁻¹ and the Km was 2900 µM.

B31: SEQ ID NO: 347: GAT polypeptide (protein)
chain: B30 chain with K30M, R47Q, K58N, E67Q, E68K, Y93H, A103V, E128G, V129I, T146A
modifications: 20A12
notes: GAT polypeptide
For the molecule B31, the Kcat was 0.0467 s⁻¹ and the Km was 1100 µM.

B32: SEQ ID NO: 341: GAT polypeptide (protein)
chain: B30 chain with K30M, F40L, R47Q, E63G, Y93H, K119E
modifications: 16A1
notes: GAT polypeptide
On to B32, for which the Kcat is 0.173 s⁻¹ and the Michaelis constant (Km) amounted to 2900 µM.

B33: SEQ ID NO: 345: GAT polypeptide (protein)
chain: B30 chain with S52C, K58Q, E67Q, E68K, Y93H, S115R, K119E, E128G, T146A
modifications: 19C6
notes: GAT polypeptide
Take B33: the Kcat came out at 0.0367 s⁻¹ and the Km amounted to 1100 µM.

B34: SEQ ID NO: 342: GAT polypeptide (protein)
chain: B30 chain with E3D, R47Q, K58Q, E67Q, E68K, Y93H, K119E
modifications: 16H3
notes: GAT polypeptide
As to B34, the Kcat was 0.0583 s⁻¹ and the Km amounted to 2900 µM.

B35: SEQ ID NO: 343: GAT polypeptide (protein)
chain: B30 chain with N8S, K30M, T39A, R47Q, K58Q, E67Q, E68K, Y93H, K119E
modifications: 17C12
notes: GAT polypeptide
For B35, the Kcat is 0.0533 s⁻¹ and the Km is 1400 µM.

(Values after US8008547B2, “Glyphosate-N-acetyltransferase (GAT) genes” (E.I. duPont de Nemours, priority 2000, dated 2011).)
